Results taken from PMC4599368 (Cell reports, 2015).

Tests used:
[1] = tested on: ΔNPNTD (NP 25-457) (Zaire ebolavirus (EBOV)); assay: filter binding
SEC = target: the molecule itself; assay: SEC

Molecule: 20 nt ssRNA
- Kd [1]: 620 nM

B1: EBOV NP residues 1–457 (NPNTD) (domain or fragment)
chain: MDSRPQKIWMAPSLTESDMDYHKILTAGLSVQQGIVRQRVIPVYQVNNLEEICQLIIQAFEAGVDFQESADSFLLMLCLHHAYQGDYKLFLESGAVKYLEGHGFRFEVKKRDGVKRLEELLPAVSSGKNIKRTLAAMPEEETTEANAGQFLSFASLFLPKLVVGEKACLEKVQRQIQVHAEQGLIQYPTAWQSVGHMMVIFRLMRTNFLIKFLLIHQGMHMVAGHDANDAVISNSVAQARFSGLLIVKTVLDHILQKTERGVRLHPLARTAKVKNEVNSFKAALSSLAKHGEYAPFARLLNLSGVNNLEHGLFPQLSAIALGVATAHGSTLAGVNVGEQYQQLREAATEAEKQLQQYAESRELDHLGLDDQEKKILMNFHQKKNEISFQQTNAMVTLRKERLAKLTEAITAASLPKTSGHYDDDDDIPFPGPINDDDNPGHQDDDPTDSQDTTIPDV
- binding result (SEC): binds
